We go through two substances from US6699677B1, “Tethered ligands and methods of use” (ChemoCentryx, Inc., priority 1999, dated 2004).

Experiment [1] addresses T1, CCR10 (Homo sapiens, UniProt Q9NPB9).
T1 sequence (Q9NPB9 1-350): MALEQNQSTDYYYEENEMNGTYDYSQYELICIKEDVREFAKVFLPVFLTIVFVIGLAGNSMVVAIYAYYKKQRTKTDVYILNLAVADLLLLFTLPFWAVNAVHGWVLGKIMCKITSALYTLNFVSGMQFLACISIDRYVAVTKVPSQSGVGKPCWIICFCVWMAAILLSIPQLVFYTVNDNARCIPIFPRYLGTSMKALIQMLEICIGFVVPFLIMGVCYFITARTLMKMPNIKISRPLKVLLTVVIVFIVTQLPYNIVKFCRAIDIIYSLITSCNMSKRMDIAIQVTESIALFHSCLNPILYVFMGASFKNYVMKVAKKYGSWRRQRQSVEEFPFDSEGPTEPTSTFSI
The experiment in a line: Spectrum of ligands that bind to CCR10. Format: binding. Also noted: Full length CCR10 expression constructs were made in pIRESpuro expression vector; expressed in transfected cells; HEK293-CCR10). From the text: (§1) Furthermore ELC-SK mediated adhesion was abolished in the presence of soluble native ELC as a competitor (FIG. 3A, top row). […] Moreover, radiolabeled ELC was used in a traditional homologous competition assay in the presence of increasing concentrations of unlabeled ELC. […] Taken together, the stalkokine-based adhesion and radiolabeled ligand binding/homologous competition assays indicate that CCR10 is a new chemokine receptor that bound a novel compliment of chemokines.

Experiment [2] deals with T1, CCR10. The experiment in a line: Homologous competition binding of radiolabeled chemokine on HEK293-CCR10 cells. Also noted: Full length CCR10 expression constructs were made in pIRESpuro expression vector; expressed in transfected cells; HEK293-CCR10).
Source text: Human, viral and murine recombinant chemokines were obtained from R&D Systems (Minneapolis, Minn.; http://cytokine.rndsystems.com/cyt_cat/cyt_cat.html). ^125I-labeled ELC and TECK were obtained from Amersham. Full length CCR10 expression constructs were made in pIRESpuro expression vector (Clontech, Palo Alto, Calif.) with a FLAG epitope tag and prolactin signal sequence, and used to generated stable transfectants in HEK293 cells. Transient and stable transfections for CCR10 and stalkokines were done using Superfect reagent (Qiagen, Valencia, Calif.) following manufacturer's protocol. Stably-transfected cells were generated by selection in 2 ug/mL puromycin for 7 days, and expression was confirmed by FACS analysis of the FLAG epitope using anti-FLAG M1 (Sigma, St. Louis, Mo.) and 2′ anti-mouse PE conjugate (Coulter Immunotech, Miami, Fla.).
as §1

The test system of a further experiment is wild type HEK293 cells. The experiment in a line: Homologous competition binding of radiolabeled ELC on wild type HEK293 cells. Also noted: species or system human. The note with it: wildtype (wt) HEK293 cells.
Source text: as §1

The target of experiment [3] is T1, CCR10. The experiment is described as follows: Binding of CCR10-NSO cells to immobilized stalkokines. Also noted: expressed in transfected cells; host or cells: not clear (NSO per the earlier reading). The procedure:
(§2) In one set of experiments, five 8 well chamber slides (Lab-Tek II, Nalge Nunc International, Rochester, N.Y.), 250 ul of 10 ug/ml anti-his antibody (R&D Systems, Minneapolis, Minn.) in PBS was added to each well and incubated at room temperature overnight (typically 16 hours). Following, the liquid in each well was aspirated and washed once for approximately 5 minutes with 500 ul of PBS. The wells were then “blocked” (blocked for any additional protein binding sites) with the addition of 250 ul of blocking solution (2% fetal bovine serum, 0.5% BSA in PBS) and incubation for 1 hour at room temp (e.g., 20° C.). The liquid in each well was aspirated and 250 ul of supernatant containing the chemokine-stalk-immobilization domain fusion proteins (SDF1a-FRAC, finetaxin-FRAC, CCL27-FRAC, 1309-FRAC, MIP3a-FRAC, ELC-FRAC, SLC-FRAC, MDC-FRAC, TARC-FRAC, or BRAK-FRAC) or the control supernatant was added to two wells. Each slide contained two wells with control supernatant (from mock-transfected cells) and two wells with the positive control SDF1a (which binds the ubiquitous chemokine receptor CXCR4). The four other wells were for experimental samples. The supernatants were incubated for one hour at room temperature (typically 20° C.), then incubated for an additional hour at 37° C. […] The slide was then ready for addition of cells for assay. […]

In the next experiment the target is T2, CCR7 (Homo sapiens, UniProt P32248).
T2 construct: host or cells: mouse myeloma NSO
T2 sequence (P32248 25-378): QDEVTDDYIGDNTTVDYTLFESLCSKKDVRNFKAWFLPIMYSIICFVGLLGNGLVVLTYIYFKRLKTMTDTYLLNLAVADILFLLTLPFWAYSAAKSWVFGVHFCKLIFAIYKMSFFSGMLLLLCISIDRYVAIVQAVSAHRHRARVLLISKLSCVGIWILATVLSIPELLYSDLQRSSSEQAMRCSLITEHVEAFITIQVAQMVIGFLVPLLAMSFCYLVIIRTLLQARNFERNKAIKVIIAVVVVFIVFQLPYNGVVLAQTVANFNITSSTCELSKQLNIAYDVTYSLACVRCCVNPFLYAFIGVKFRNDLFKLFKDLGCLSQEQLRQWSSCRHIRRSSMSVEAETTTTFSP
The experiment in a line: Binding of CCR7-NSO cells to immobilized stalkokines. The protocol:
as §2

Regarding BLC: chemokine, in the experiment with CCR10 [1], the “Affinity of binding to CCR10” value is on record as “lower affinity”.

For “ELC: EBl1 ligand chemokine, soluble recombinant native form”, the “Binding of radiolabeled chemokine in homologous competition with cold chemokine” value with CCR10 [2] is recorded as “significant binding”. For the same substance, in the experiment on wild type HEK293 cells, the “Binding of radiolabeled ELC in homologous competition with unlabeled ELC” value is listed as “not”. Further, the “Binding to Stalkokine form” value with CCR10 [3] and with CCR7 was “yes” each time. Further, the “Affinity of binding to CCR10” value with CCR10 [1] was “high affinity”.
